What was measured:
mtDod(WT) = target: T1, mtDod(WT) (Mycobacterium tuberculosis, UniProt I6XY36)
T1 construct: gene Rv1498A

[1] = target: mtDod-mmACP (Mycobacterium tuberculosis | Mus musculus); test: SEC
[2] = target: mtDod-mmACP (Mycobacterium tuberculosis | Mus musculus); test: SDS-PAGE (dodecamer stable in SDS)
[3] = target: the molecule itself; test: SDS-PAGE (dodecamer stable in SDS)

Molecule: Cc1cc2nc3c(=O)[nH]c(=O)nc-3n(C[C@H](O)[C@H](O)[C@H](O)COP(=O)(O)O)c2cc1C [FMN]
- thermocyclic fluorescence assay (quenching of FMN fluorescence on binding to the) (mtDod(WT)): fluorescence quenching that is observed when flavins bind to dodecin

Molecule: mtDod-mmACP
- stoichiometry N [1]: 12
- stoichiometry N [2]: 12

B1: Mycobacterium tuberculosis dodecin wild type (natural protein)
chain: MSNHTYRVIEIVGTSPDGVDAAIQGGLARAAQTMRALDWFEVQSIRGHLVDGAVAHFQVTMKVGFRLEDS
notes: also called mtDod(WT); mtDod; copies: 12
- stoichiometry N [3]: 12

From article PMC7414021, “Dodecin as carrier protein for immunizations and bioengineering applications” (Scientific Reports, 2020)
